From article PMC5766548 come the findings set out here.

One test deals with enhanced GFP (EGFP). As to the kind of experiment: AUC; sedimentation velocity; 0.33, 0.65 and 1.3 mg mL^-1; 20 mM Tris pH 7.5, 150 mM NaCl; 50,000 rpm, 20 °C; absorbance at 280 nm; c(s) distributions and weight average sedimentation coefficients against concentration.
The target in test [1] is superfolder GFP (sfGFP) [GFP: P42212]. The experiment in a line: SEC-SAXS; in-line Superdex 75 10/300 GL; 50 µL loaded at approximately 50 mg mL^-1 (> approximately 10 mg mL^-1 after dilution on the column); 25 mM Tris pH 7.5, 150 mM NaCl; profiles compared with CRYSOL curves of monomer and dimer of the usGFP crystal structure. (Size exclusion chromatography separates by hydrodynamic size, large species first.)

Test [2] addresses ultra-stable GFP (usGFP) [GFP: P42212]. Described as above.

Broadly, the stoichiometry N is a count of units in the complex or per binding partner. As to enhanced GFP (EGFP), the stoichiometry N with enhanced GFP (EGFP) was 2.
In turn, “superfolder GFP (sfGFP) (from UniProt P42212 1-238)” registered a stoichiometry N in test [1] of 2.
Turning to “ultra-stable GFP (usGFP) (from UniProt P42212 1-238)”, in test [2], the stoichiometry N turned out to be 2.
